# According to the supplement of paper PMC12636428:
# Tested on: Saccharomyces cerevisiae
# Assay: transcriptional activation domain activity (GFP:mCherry ratio, weighted mean of sorted bins, harmonized to initial dataset scale) (arbitrary fluorescence ratio units); higher = stronger transcriptional activation
# Details: beta-estradiol 1 µM; induction time 4 h
# How it was run: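 Each value is an activation activity: the read-weighted mean of bin median fluorescence, averaged across barcodes, then mapped linearly to the initial dataset scale. The tiles, fused to an estradiol-inducible synthetic transcription factor, sat at the yeast URA3 locus in GFP-reporter diploids. Cells spent 4 hours at 30 °C in SC with 1 uM beta-estradiol before sorting into 8 GFP:mCherry bins, and tiles below 50 reads were removed.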
row,Sequence,transcriptional activation domain activity
1,HSGVLRDVHVVFQDRSFCARLAEQIGRRLRMIYSNWRETCCMEMLITLSLRLF,73200
2,FQLWKSLNCAYSSVQVTSQGFSIGILFWTLLEYVLHRFLFHLDKLLPDHPIAL,63900
3,ILAGCCLGYACNKWGSITVFKYYGIPWLFLNHWFVMITYLHHTDPTIPHYRGK,73500
4,LDGSVDTSAPLDTGLFNSWMDIFQAFPFPAEGFTPDSFNDNYPIDPNQTFLTI,141000
5,VALTFYFLFLLFLILLRLGLISCFVFFNFWYIYHFFYLSINLSIFFISFHSFI,78300
6,SASPDESRRSSHRSRRDRDYEKRRDRGEERDSDHDHRRKSHSHRDRERDRGRD,30000
7,GTCGKLGLLCRSMALYSPEVTVVTVSGGGGSSRWVEYLELALRTTGRVAVLLT,64500
8,MFVVLAMLLVILVVIFIFVIFVLIVLIFVILVMLLMLFFILIVIIAVIVLFFF,16700
9,EEEDGEEDYGNRLFVIASDKLQEEQLLIDVPPGNILSSNLLQVLKEILKTRKK,26100
10,ADGEEEEEEGEAAGGSERPGIWGQALMELGSTVCTPKPKCVECPVTATCRAYQ,55800
11,ERLPVDLAVLCTIVEKLFGLAIMTARHRDLGSLHGVLLPRTWILSLWGDFLRF,71700
12,MSLAYLILGFPIPPFLPYFLDVVLSPLSRFSPLPLVFPFVLWCPTSLPLFTSF,51400
13,MGLPYFWFYKHTCFSVNYVSSLFVLFFFYFLVGVVGYVTMGLVIFFLFFFLFF,70300
14,MRKVLANVPGPGGTWGLGFISGVLLVNPKRLLGYLLRCWSTHHGKLARCLWPI,47600
15,DDEADGKRRRVQRACDSCRKKKCDVRARVYLCGCSKTPRSASQLLRRARGAHG,42500
16,MSATEATAVPAPAEEVKVVETPAVDPVPEAPAAEESAPATEVKKEERPKSPSL,54600
17,ETVEEPAPKRGKATRTKAAEPAPVEEAPKPAAKPRGRAAAKKATEPAAEAEVE,35500
18,RGLKNVVVLPAVGERSLASCLAGGDLDGYVIRVLRMLVWFIAFSRDTYDIYIG,69600
19,MLLLLITHIGIAILFVCWNPRFSCPNQSPDQQGTCRLFNMYILISSWIIPAFL,55600
20,MLYRVYLDIFFFLYCLFVLGAFQDTRRFLFKFWAFPLLKVWQVVTIHLTCTQY,61800
21,NGFLLQVVRWNTRPHKEVVQLLTKYFTGAKHQRLLSENIGLIAEWTDRICQLG,58900

row,Sequence,transcriptional activation domain activity
1,RLYAVRLVIVILVMELTLHFLYVVAISKSKAWDGASPLELSMVGYFNLVIIWM,42900
2,GTEYEIGRPSDEEVTITRMLDKVLRRSDAVDKESLCIVAGQRVWHLRLTLHCL,68500
3,LKEKSLRILILNGLVRLIWTYLYRCQESPSTTTTKLENLLKYLFPPNRTSVYP,44900
4,MLFVFAQLHQVPLSEYFLLGCLYWFFYHIIFSSIFRPSHSIGMASGLPMLYTP,45000
5,TLTQRLSGSMIYIWCSGGVVFAIVLALQVLVLFALLNVITCLEGHMLSIHGWP,39900
6,AATNKYDATIQRMLSRSVFVTCNSWYRVGGTGKNTSIFPGPGMLFWWWTRQAR,61100
7,DAGSGGGEVRRAGGSGILKESGTFGDCRCLSRYASAASLRVHVLLCWENALSA,40400
8,MGTLLLVFMHYGWTFFLDCCLWWYMMSLGFWYKVCLPLLLLDFHVYCHLWYMI,53600
9,MAQVAVFLVHKVLYGIIPLFEIQTCAYFPLLVSLWHLNYMLFYVVMFMRLIIL,45300
10,MLLTFFFPLYCTSSFRVTQFLYPFQTLLFTFVFQAYLLLFLLFLLLLLLCFSP,41000
11,NAVIKDFACVNECLARCSHVITTRRIIYILQLRVHCVAYSLPILNLPLFFFSR,55300
12,FTRHLSKEEIDVVVDCVWRASKLRNCTRVTVMECCVRTAPWFNSDGVICAYIM,49700
13,NGHGTHCSGTVAGKKYGVAKKANIKAVKVLRSNGSGTMSDVVKGVEFAAEQHS,15600
14,LDIGHWMSSYNLLRRQSTKRYMIIMDLTRRFNTRTPNLLYLIQWGFVWGVSYY,57900
15,SQVCLDSFGLLFAVVAYPCTSLLLLIFILASFLTFQAIFTLFPLFRLLAFFCL,41700
16,KHEREFEGNSNRDREVVQGKREGGGGERGGRGRGAGGGGERGRGRGNSGRGDG,12500
17,FVLDTFLWYIIWNTDIYTRLPKRIYAKILATADMEVKYKPKVLVSQIWNAVLI,14000
18,DATPAAPANGNDGFHEVQHRGRGRGGFQGEGRGGGGYRGRGGRGGEGRGRGRG,25800
19,TLDTVMRDTANMDWVRFLPLSLLFTSFIFSPLSFSLFRMYVHALLFFCFTFTP,49600
20,SIHLPKKITICTYIGTYYAIGAAWGFVLMNYFLTGWYFGLYDKYYIDSFGIYV,76000
21,MFLLLKYDFSLTDLLRILLRLNMFPILLSFIMDRPYTSYTLPWLISFWYLVFF,66500

row,Sequence,transcriptional activation domain activity
1,ILLPIFGLANRDKNVELMRWALKQCNRTLRRKRAHIWYFSRWLMRPMLPQQRS,66600
2,NPPSWHHTLVFWGGKLFFCFYRIILPAYLIGWARTLLYLTLSDLVSSYWLALT,51300
3,FVTFVFCPPLLAFAHRFGRKVLKRIILALLAFHLVIVLLSSAIMSPYDELHPK,34300
4,MLLRRAVSLGVEGFFIFFYFLLMGLHCICLRGSSPWVDMFLFFVFFVSLVGFF,72200
5,LRDLERSFDLLRFTWVPSIACWILPLLTRPDFSTLLSVLGETIQRFSSNFVIM,73700
6,GESNASLTKTLDSVLRNCFPQRSRMVLPVELPLDVFVCIVHFLLVRQFEYGQE,49700
7,ELRNHMSAIIDICWGACGTYKGVELWLEWDRNDNVPFHDSLWRVVRFVIFVNH,63200
8,LNGRRMMHEPLVYDMYEPQTPLIIIARVGVRLVFIVAKIGELPHCFIDEPPQQ,23200
9,FSIVACVVGCQDSEWGLQFSHERCFTLHTLGHLSQFEKIVVVLIACKLLLFSK,65200
10,MIGVVCALYLFFFPSFFLLFFFSTLLDDDTLIIYKFFLLWESWFVAFILFFYL,24900
11,TFGLQTSDKNHYIVDAIHVAVARVGVYVQYPQLQKWSLGKIFYISVWKMRTKF,68800
12,RGGKGVEEERGEGGGRGEGERGQGGRGRGGRGAGARGRGGTGEEGEGAGGKQE,51400
13,VFSQTEAIRVLGLIGRIATGRHLDIILSDILPPSTVAELYALGKFMNLPWWYR,58400
14,VKEGGKDLVQLPKSWVEIDGEILVRAVLLLLHPGATLYGPVPMKIARNWPFAS,60700
15,YQNLYFIQLLVSCWALIGMLHLSLNRFEHLHFMVYMRPSGSKYLVAISWCLFL,66900
16,MSIEKKFDDDSPIDIEPSRSYDLDTRRRAALAEIDNASFSRFHVKTVIVAGIG,64400
17,FLHCEPPTLLRLLGFFLCLVFSLYFTLSFPFFGPMLLLIRFSLGLPLPLVLMG,58300
18,ARYIVKYKNGLIGKHFKILQHLGIFHLHNDLCGDNLFNLWKAAGGLGALLWFP,57600
19,GDGTPTLSWRHDLGGGEVRDLEVTVVKVHSGEVTLLSSATLKLVLVFHLSSTI,43400
20,DRPRDRDSSRSRRDVSSSRRDRDGEDKESAGDRRDDRKPARDDRRTREDHRRE,28100
21,RIFGLQSPQLVYVESMARVRKLSLSGKILRLLVDRFFVQWEALADGKTGSRWW,61100

row,Sequence,transcriptional activation domain activity
1,VPVNPLALSPETGGPKKLPVARVLVDDEEDEEAKKLSTKPRLVIVGGGWGAVG,41900
2,KLKSLVAIVWILDFVHLILICQAIYHYLITNWGTTQRFCSPPRFSICTLCLSL,55200
3,HGEERGWIYLVQYRGIAWLLRRLACCRFEILAIFHLSNLNHPVNVLADSYDRE,19700
4,CPYYPMICPSFLPLLLVLLFSLYLFLSSPLDFFLPLDFLIHTHNCTFLRTKGQ,40000
5,FVEDPEMRRSIVRKFDWRVLTWMAGLSSYLRLWVLYRSSLTRLLMCLVLCINA,69800
6,GASAFGSAAQLGQKSSPWGSATSAVPSTGGAVFGSSGFGNAAPSAAPAFGKPS,33200
7,EPFHLQHQSNHVYGKIVIGDSLMDEWFIVYLLRELSLWLDHLVIRYIYRRLMI,59900
8,MLLNMLMLWILYIFSVTTFSTFRYFIILPVPSLMDYSEFFRACMLGAFVLSPV,71000
9,SDEEEAEVIPAKKARGKKAPVKQEEIQSDEEVLTAKKPAKQARGKKAPAAAVK,30600
10,NVRLQVDQCAFVLEHCADATPGLINYIQWYYCSSTKPIVFILMCFWLLFLFGF,40400
11,PVAPPAASQPHPTANTMQATHAPPSSGRRRGRPKGSKNKPKPEAPTGPEASAG,6790
12,STRNYKLYIGNTVFFCGGRFLTSRAFWAFGLSLFLINMPAILFIIFSCPWLWY,55900
13,IWCRKCNLGSILYVLARYGTLNCLLVSSLSLVTGFVVNMIFHIILGLLLARAY,65100
14,GVFCLALWVPATGFELVSFFALLVGAIFGVFWMVAGLKNLQSSLSISWLVIAL,65200
15,LVREHELLGVIICHLVKSNQSGLTDLEYLLNIVKKIDKYDNLLVHYFPALGAL,24500
16,EQDNVDSTQQSSTGRVKRSREDSASGERLRSTSRSRSKSPSGRHKRSRRHRRS,36100
17,MPEVESARPTTSSKCIVLFYLFFLPCLSPFLYFLMLTMASVPSPLGFLLLLVC,66100
18,MRSTGLESIKGLGTGYVGICGFIYLCISTYMHFLIPNIPNWIFFLLFLYPFLS,59300
19,TQAGPSTGGGVFGQPSQPSTSTNAFGGGNGLFGSKPTTGFGTATTPAAGVPAP,53600
20,LQCEGFTLRVPFVVDDTFYALMRCFDFFTIDEDPELWRLWCSLLRYALRLQNG,40200
